Values quoted from earlier work as cited in publication PMC8999013.

Biological target: integrin α7B cytoplasmic domain (Homo sapiens) (UniProt Q13683)
Test: intrinsic tryptophan fluorescence

Sequence of integrin α7B cytoplasmic domain (Homo sapiens) (Q13683 1104-1181): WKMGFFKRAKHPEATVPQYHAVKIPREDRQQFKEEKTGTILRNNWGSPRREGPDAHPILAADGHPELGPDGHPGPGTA
Sequence of CIB2 (O75838 whole entry): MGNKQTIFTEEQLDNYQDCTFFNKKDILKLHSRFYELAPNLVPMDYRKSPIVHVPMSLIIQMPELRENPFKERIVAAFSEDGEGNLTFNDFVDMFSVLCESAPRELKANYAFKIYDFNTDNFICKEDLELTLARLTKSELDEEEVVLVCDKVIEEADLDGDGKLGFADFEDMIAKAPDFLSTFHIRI

Substance: CIB2 (from UniProt O75838)
- Kd: 304 nM
